Measurements taken from patent US20010010922.

What was measured:
[1] = system: GST-BCL6 fusion protein (full-length BCL-6)
[2] = system: GST-BCL6ΔZFAla333 fusion protein
[3] = system: GST-BCL6ΔZFAla333,343 fusion protein

Sequence of Recombinant ERK2 (New England Biolabs) (P28482 2-360): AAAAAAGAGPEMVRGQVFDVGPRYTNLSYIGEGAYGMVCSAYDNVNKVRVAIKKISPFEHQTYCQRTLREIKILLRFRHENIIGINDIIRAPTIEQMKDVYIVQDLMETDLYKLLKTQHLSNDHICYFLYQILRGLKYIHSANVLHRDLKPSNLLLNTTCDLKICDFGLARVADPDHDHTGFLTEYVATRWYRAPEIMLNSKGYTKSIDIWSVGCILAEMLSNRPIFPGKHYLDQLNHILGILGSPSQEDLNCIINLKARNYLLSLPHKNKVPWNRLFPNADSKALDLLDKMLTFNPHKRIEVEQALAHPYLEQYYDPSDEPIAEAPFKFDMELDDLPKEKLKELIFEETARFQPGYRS

Substance: Recombinant ERK2 (New England Biolabs)
- phosphorylation in ERK2 kinase assay in vitro ([gamma-32P]-ATP) [1]: purified recombinant MAPK (ERK-2) can phosphorylate GST-BCL-6 fusion proteins in vitro
- phosphorylation in ERK2 kinase assay in vitro ([gamma-32P]-ATP) [2]: phosphorylated at much lower levels than wild type BCL-6
- phosphorylation in ERK2 kinase assay in vitro ([gamma-32P]-ATP) [3]: phosphorylated at much lower levels than wild type BCL-6, with BCL-6Ala333,343 displaying the lowest levels
